The results in this text go back to patent publication US11414648B2, “Methods and compositions for production of fallopian tube epithelium” (CEDARS-SINAI MEDICAL CENTER, priority 2017, dated 2022).

Common to all, as to type: cell-based
Experiment [1] has as its system human iPSCs. The experiment can be described thus: Differentiation of human iPSCs into mesoderm (qPCR/immunocytochemistry of MIXL1, BRACHYURY). The settings on record: 100 ng/ml activin A and 3 μM CHIR99021 used together; iPSC line 87iCTR-n3; peak at day 2. As to the method: Human iPSCs were split onto Matrigel-coated plates, and cultured in mTeSR®1 medium until 80% confluent. Three intermediate protocols were compared, according to Mae et al. (2013), Xia et al. (2013), and Takasato et al. (2014). […]
Total cellular RNA was isolated using Qiagen RNeasy Mini kit according to the manufacturer's recommendations (Qiagen). Of RNeasy-treated total RNA (1 μg) was used for cDNA synthesis using the Quantitect Reverse Transcription Kit for cDNA synthesis for PCR (Qiagen). […]
In general terms: In qPCR the cycle at which signal appears reflects the starting amount.

The subject of experiment [2] is intermediate mesoderm (IM) cells derived from human iPSCs. The experiment can be described thus: Differentiation of intermediate mesoderm into Müllerian duct / FTE precursor vs nephric duct (marker expression). The settings on record: for expression of kidney markers SIX2 and FOXD1: qPCR, relative to iPSC day 0, 87iCTR-n3. As to the method: (§1) Human iPSCs were split onto Matrigel-coated plates, and cultured in mTeSR®1 medium until 80% confluent. Three intermediate protocols were compared, according to Mae et al. (2013), Xia et al. (2013), and Takasato et al. (2014). The final protocol that achieved best efficiency and results for creating fallopian tube epithelium was a modified Mae et. al., (2013) protocol, as defined below. • Day 0-2: Cells were exposed to 100 ng/ml human recombinant activin A (Stemgent) and 3 μM CHIR99021 (Cayman Chemicals) to differentiate towards mesoderm, and cultured in DMEM/F12 (Gibco)+Glutamax (Invitrogen) supplemented with 500 U/ml penicillin streptomycin (Gibco) and 2% fetal bovine serum (FBS) with addition of 10 μM ROCK inhibitor Y-27632 (Stemgent). • Day 2-4: To differentiate towards IM, media was changed to DMEM/F12 (Gibco)+Glutamax (Invitrogen) supplemented with 0.1 mM non-essential amino acids (Invitrogen), 500 u/ml penicillin/streptomycin (Gibco), 0.55 mM 2-mercaptoethanol, 10% KOSR (Invitrogen), 100 ng/ml BMP4 (R&D Systems), 3 μM CHIR99021 (Cayman Chemicals), and 10 μM ROCK inhibitor Y-27632 (Stemgent). • Day 4-6: Spheroids were collected from wells and re-plated per methods described below. To differentiate the spheroid cultures towards Müllerian epithelium, media was changed to Fallopian tube media (FTM) containing DMEM/F12 (Gibco)+500 u/ml penicillin/streptomycin (Gibco), and 10 ml reconstituted Ultroser G (15950-017, Pall) and 10 μM ROCK inhibitor Y-27632 (Stemgent). To the FTM, 100 ng/ml human recombinant WNT4 (R&D Systems) with or without 3 μM CHIR99021(Cayman Chemicals), 100 ng/ml human recombinant WNT3A (R&D Systems) with or without 3 μM CHIR99021 (Cayman Chemicals) were added. • Day 6-8: FTM was changed and 20 ng/ml human recombinant Follistatin (Peprotech), 1 ng/ml estrogen and 33 ng/ml progestrone were added.
(§2) Total cellular RNA was isolated using Qiagen RNeasy Mini kit according to the manufacturer's recommendations (Qiagen). Of RNeasy-treated total RNA (1 μg) was used for cDNA synthesis using the Quantitect Reverse Transcription Kit for cDNA synthesis for PCR (Qiagen). Real-time PCR was performed using the SYBR Green Supermix (BioRad). The levels of expression of respective genes were normalized to corresponding GAPDH values and are shown as fold change relative to the value of the control sample. All sample analyses were carried out in triplicate.
(§3) Monolayer cultures were grown on poly-1-lysine and ornithine coated glass coverslips. Cells were washed once with phosphate buffered saline (PBS) and fixed with 4% paraformaldehyde (PFA) in 1× PBS for 20 minutes and permeabilized in PBS containing 0.5% Triton X-100 (PBS-T) (Sigma) for 5 minutes at room temperature. […]

Experiment [3] concerns human iPSCs. The experiment can be described thus: Differentiation of mesoderm into intermediate mesoderm (IM) (marker expression). The settings on record: for transient upregulation of BRACHYURY and MIXL1 seen during gastrulation: BMP4 vs BMP7 treatment, 87iCTR-n3 iPSC line. As for the experimental part:
as §1, §2, §3

As to `Cc1c[nH]c(-c2cnc(NCCNc3ccc(C#N)cn3)nc2-c2ccc(Cl)cc2Cl)n1` [CHIR99021, reference compound], the “mesoderm induction (MIXL1 and BRACHYURY)” value in the experiment with human iPSCs [1] is “rapidly and efficiently specified human iPSCs (line 87iCTR-n3) into mesoderm”.

B1: WNT4: human recombinant WNT4 (R&D Systems) (protein, UniProt P56705 23-351, looked up)
Protein Wnt-4: SNWLYLAKLSSVGSISEEETCEKLKGLIQRQVQMCKRNLEVMDSVRRGAQLAIEECQYQFRNRRWNCSTLDSLPVFGKVVTQGTREAAFVYAISSAGVAFAVTRACSSGELEKCGCDRTVHGVSPQGFQWSGCSDNIAYGVAFSQSFVDVRERSKGASSSRALMNLHNNEAGRKAILTHMRVECKCHGVSGSCEVKTCWRAVPPFRQVGHALKEKFDGATEVEPRRVGSSRALVPRNAQFKPHTDEDLVYLEPSPDFCEQDMRSGVLGTRGRTCNKTSKAIDGCELLCCGRGFHTAQVELAERCSCKFHWCCFVKCRQCQRLVELHTCR
As to B1, the “expression of fallopian tube precursor (Müllerian duct) markers WT1 and OVGP1” value in experiment [2] (qPCR and immunocytochemistry, 100 ng/ml WNT4 on day 4 followed by 20 ng/ml Follistatin on day 6, WNT4/CHIR compared to WNT4 alone) is reported as “upregulated expression over time”. Besides, in experiment [2], the “expression of kidney markers SIX2 and FOXD1” value was “lack of expression”.

B2: activin A: human recombinant activin A (Stemgent), growth factor (protein, UniProt P08476 311-426, looked up)
Inhibin beta A chain: GLECDGKVNICCKKQFFVSFKDIGWNDWIIAPSGYHANYCEGECPSHIAGTSGSSLSFHSTVINHYRMRGHSPFANLKSCCVPTKLRPMSMLYYDDGQNIIKKDIQNMIVEECGCS
modifications: Inhibin beta A chain activin A homodimer
Take B2: the “mesoderm induction (MIXL1 and BRACHYURY)” value in the experiment on human iPSCs [1] was “rapidly and efficiently specified human iPSCs (line 87iCTR-n3) into mesoderm”.

B3: BMP7: Bone Morphogenetic Protein used in the Mae et al (2013) protocol (protein, UniProt P18075 293-431, looked up)
Bone morphogenetic protein 7: STGSKQRSQNRSKTPKNQEALRMANVAENSSSDQRQACKKHELYVSFRDLGWQDWIIAPEGYAAYYCEGECAFPLNSYMNATNHAIVQTLVHFINPETVPKPCCAPTQLNAISVLYFDDSSNVILKKYRNMVVRACGCH
Take B3: the “transient upregulation of BRACHYURY and MIXL1 seen during gastrulation” value in the experiment with human iPSCs [3] was “not recapitulated”.

B4: BMP4: BMP4 growth factor (R&D Systems) (protein, UniProt P12644 293-408, looked up)
Bone morphogenetic protein 4: SPKHHSQRARKKNKNCRRHSLYVDFSDVGWNDWIVAPPGYQAFYCHGDCPFPLADHLNSTNHAIVQTLVNSVNSSIPKACCVPTELSAISMLYLDEYDKVVLKNYQEMVVEGCGCR
Take B4: the “mesoderm differentiation into IM, based on expression of early IM markers PAX2, OSR1 and GATA3” value in the experiment with human iPSCs [3] (100 ng/ml, day 2-4, compared with BMP7 of Mae et al protocol) is “optimal mesoderm differentiation into IM”. Also, in the experiment on human iPSCs [3], the “transient upregulation of BRACHYURY and MIXL1 seen during gastrulation” value is “expected transient upregulation”. For the same molecule, the “expression of endoderm-marker SOX17 and ectoderm-marker NCAM” value in the experiment with human iPSCs [3] (differentiation protocol that included BMP4, 87iCTR-n3) is “no to very low detectable expression levels”.

B5: WNT3A: human recombinant WNT3A (R&D Systems) (protein, UniProt P56704 19-352, looked up)
Protein Wnt-3a: SYPIWWSLAVGPQYSSLGSQPILCASIPGLVPKQLRFCRNYVEIMPSVAEGIKIGIQECQHQFRGRRWNCTTVHDSLAIFGPVLDKATRESAFVHAIASAGVAFAVTRSCAEGTAAICGCSSRHQGSPGKGWKWGGCSEDIEFGGMVSREFADARENRPDARSAMNRHNNEAGRQAIASHMHLKCKCHGLSGSCEVKTCWWSQPDFRAIGDFLKDKYDSASEMVVEKHRESRGWVETLRPRYTYFKVPTERDLVYYEASPNFCEPNPETGSFGTRDRTCNVSSHGIDGCDLLCCGRGHNARAERRREKCRCVFHWCCYVSCQECTRVYDVHTCK
Take B5: the “decreased levels of WT1 and OVGP1 compared to WNT4 treatment” value in experiment [2] (WNT3A treatment (nephric duct differentiation) vs WNT4) is recorded as around 10 fold. Also, in experiment [2], the “expression of kidney markers SIX2 and FOXD1” value is listed as “increased expression”.
